Measurements taken from US20200031947A1.

Biological target: cynomolgus GITR (cyGITR), soluble analyte (cynomolgus)
Test: SPR (Biacore T200), 37 C; antibody captured on anti-human Fc chip, GITR as analyte; 1:1 Langmuir fit

Kd: > 100 nM
koff: 0.078 s⁻¹
t1/2: 9 s
B1: h3G7 H1 (antibody, V domains shown)
VH: EVQLVESGGGLVQPGGSLRLSCAASGFTFSDYTMNWVRQAPGKGLEWVALINPYNGGIRYNQKFKGRFTISRDNAKNSLYLQMNSLRAEDTAVYYCARIGGYYDSMDYWGQGTLVTVSS
VL: DIQMTQSPSSLSASVGDRVTITCRASESVDNFGINFLNWYQQKPGKAPKLLIYAASNQGSGVPSRFSGSGSGTDFTLTISSLQPEDFATYYCQQSKELPWTFGGGTKVEIK
